system: Escherichia coli TOP10; assay: shrunken log2 fold change of peptide-encoding DNA abundance (4.5 h post-induction vs induction); higher = less antimicrobial activity (less host growth inhibition); conditions: time post-induction: 4.5 h; library: site-saturation at positions 5, 18, 19, 20
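Further: peptides expressed intracellularly from a pBAD plasmid library in pooled LB shake-flask culture, induced with 0.3% L-arabinose, DNA abundance read by NGS, three biological replicates, DESeq2 with apeglm shrinkage.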

Sequence | shrunken log2 fold change
RRIRVRPPRLPRPRPRPHRQPRP | -0.384
RRIRKRPPRLPRPRPRPWPMPRP | 0.915
RRIRPRPPRLPRPRPRPVEVPRP | -0.0864
RRIRRRPPRLPRPRPRPTTDPRP | 0.647
RRIRWRPPRLPRPRPRPDYYPRP | -0.218
RRIRGRPPRLPRPRPRPMNGPRP | 0.00709
RRIRMRPPRLPRPRPRPQACPRP | -0.12
RRIRKRPPRLPRPRPRPFNQPRP | -0.0503
RRIRIRPPRLPRPRPRPNFQPRP | -0.417
RRIRWRPPRLPRPRPRPHGNPRP | 0.132
RRIRVRPPRLPRPRPRPCELPRP | -0.286
RRIRARPPRLPRPRPRPYWWPRP | -0.195
RRIRWRPPRLPRPRPRPWMGPRP | 0.0275
RRIRHRPPRLPRPRPRPHHYPRP | -0.533
RRIRYRPPRLPRPRPRPITFPRP | -0.864
RRIRDRPPRLPRPRPRPIHAPRP | 0.125
RRIRLRPPRLPRPRPRPMENPRP | -0.105
RRIRARPPRLPRPRPRPYLKPRP | -0.352
RRIRYRPPRLPRPRPRPRCVPRP | -0.276
RRIRERPPRLPRPRPRPYLTPRP | -0.424
RRIRTRPPRLPRPRPRPIGVPRP | -0.0262
RRIRIRPPRLPRPRPRPNIGPRP | -0.358
RRIRDRPPRLPRPRPRPHFQPRP | -0.236
RRIRPRPPRLPRPRPRPYFMPRP | -0.555
RRIRNRPPRLPRPRPRPPSVPRP | 0.0886

Sequence | shrunken log2 fold change
RRIRNRPPRLPRPRPRPLYVPRP | -0.641
RRIRCRPPRLPRPRPRPTYYPRP | -0.758
RRIRLRPPRLPRPRPRPFDKPRP | -0.151
RRIRLRPPRLPRPRPRPIDLPRP | -0.0804
RRIRIRPPRLPRPRPRPILNPRP | -0.73
RRIRGRPPRLPRPRPRPKKDPRP | 0.708
RRIRLRPPRLPRPRPRPWVCPRP | -0.0462
RRIRCRPPRLPRPRPRPSLHPRP | -0.289
RRIRHRPPRLPRPRPRPPPLPRP | 0.651
RRIRRRPPRLPRPRPRPVQIPRP | 0.14
RRIRDRPPRLPRPRPRPAQGPRP | 0.00228
RRIRQRPPRLPRPRPRPAKDPRP | 0.0171
RRIRIRPPRLPRPRPRPRNTPRP | -0.208
RRIRLRPPRLPRPRPRPAMDPRP | 0.113
RRIRDRPPRLPRPRPRPHTVPRP | -0.0379
RRIRFRPPRLPRPRPRPGSAPRP | 0.182
RRIRWRPPRLPRPRPRPCYIPRP | -0.46
RRIRLRPPRLPRPRPRPDHEPRP | 0.0172
RRIRPRPPRLPRPRPRPQNCPRP | -0.621
RRIRVRPPRLPRPRPRPKYLPRP | -0.308
RRIRCRPPRLPRPRPRPFSCPRP | 0.0218
RRIRTRPPRLPRPRPRPHHVPRP | 0.0387
RRIRSRPPRLPRPRPRPLTIPRP | -0.201
RRIRTRPPRLPRPRPRPMFEPRP | -0.171
RRIRHRPPRLPRPRPRPHGPPRP | 0.0873

Sequence | shrunken log2 fold change
RRIRSRPPRLPRPRPRPMYNPRP | -0.557
RRIRHRPPRLPRPRPRPWIMPRP | -0.597
RRIRFRPPRLPRPRPRPWTGPRP | -0.00822
RRIRYRPPRLPRPRPRPSQYPRP | -0.209
RRIRARPPRLPRPRPRPHCNPRP | 0.717
RRIRLRPPRLPRPRPRPHGCPRP | -0.0225
RRIRFRPPRLPRPRPRPETTPRP | 0.533
RRIRDRPPRLPRPRPRPIKNPRP | -0.158
RRIRPRPPRLPRPRPRPRLSPRP | 0.306
RRIRQRPPRLPRPRPRPQMWPRP | 0.0113
RRIRVRPPRLPRPRPRPNMFPRP | -0.103
RRIRCRPPRLPRPRPRPYREPRP | -0.09
RRIRYRPPRLPRPRPRPIYCPRP | -0.15
RRIRLRPPRLPRPRPRPKFFPRP | 0.002
RRIRERPPRLPRPRPRPAIIPRP | -0.259
RRIRVRPPRLPRPRPRPRCMPRP | -0.23
RRIRCRPPRLPRPRPRPIWAPRP | -0.0162
RRIRERPPRLPRPRPRPKAVPRP | 0.0311
RRIRGRPPRLPRPRPRPVTHPRP | 0.106
RRIRYRPPRLPRPRPRPPDKPRP | 0.194
RRIRNRPPRLPRPRPRPEYVPRP | -0.05
RRIRVRPPRLPRPRPRPEGWPRP | 0.762
RRIRFRPPRLPRPRPRPQGFPRP | -0.313
RRIRDRPPRLPRPRPRPREAPRP | -0.0547
RRIRSRPPRLPRPRPRPHTGPRP | -0.703
